# Assay results: IntAct's records for PubMed 9701578
# B1: Receptor protein kinase CLAVATA1 (Arabidopsis thaliana (Mouse-ear cress)), Q9SYQ8 (parent)
# chain: MAMRLLKTHLLFLHLYLFFSPCFAYTDMEVLLNLKSSMIGPKGHGLHDWIHSSSPDAHCSFSGVSCDDDARVISLNVSFTPLFGTISPEIGMLTHLVNLTLAANNFTGELPLEMKSLTSLKVLNISNNGNLTGTFPGEILKAMVDLEVLDTYNNNFNGKLPPEMSELKKLKYLSFGGNFFSGEIPESYGDIQSLEYLGLNGAGLSGKSPAFLSRLKNLREMYIGYYNSYTGGVPPEFGGLTKLEILDMASCTLTGEIPTSLSNLKHLHTLFLHINNLTGHIPPELSGLVSLKSLDLSINQLTGEIPQSFINLGNITLINLFRNNLYGQIPEAIGELPKLEVFEVWENNFTLQLPANLGRNGNLIKLDVSDNHLTGLIPKDLCRGEKLEMLILSNNFFFGPIPEELGKCKSLTKIRIVKNLLNGTVPAGLFNLPLVTIIELTDNFFSGELPVTMSGDVLDQIYLSNNWFSGEIPPAIGNFPNLQTLFLDRNRFRGNIPREIFELKHLSRINTSANNITGGIPDSISRCSTLISVDLSRNRINGEIPKGINNVKNLGTLNISGNQLTGSIPTGIGNMTSLTTLDLSFNDLSGRVPLGGQFLVFNETSFAGNTYLCLPHRVSCPTRPGQTSDHNHTALFSPSRIVITVIAAITGLILISVAIRQMNKKKNQKSLAWKLTAFQKLDFKSEDVLECLKEENIIGKGGAGIVYRGSMPNNVDVAIKRLVGRGTGRSDHGFTAEIQTLGRIRHRHIVRLLGYVANKDTNLLLYEYMPNGSLGELLHGSKGGHLQWETRHRVAVEAAKGLCYLHHDCSPLILHRDVKSNNILLDSDFEAHVADFGLAKFLVDGAASECMSSIAGSYGYIAPEYAYTLKVDEKSDVYSFGVVLLELIAGKKPVGEFGEGVDIVRWVRNTEEEITQPSDAAIVVAIVDPRLTGYPLTSVIHVFKIAMMCVEEEAAARPTMREVVHMLTNPPKSVANLIAF
# partner: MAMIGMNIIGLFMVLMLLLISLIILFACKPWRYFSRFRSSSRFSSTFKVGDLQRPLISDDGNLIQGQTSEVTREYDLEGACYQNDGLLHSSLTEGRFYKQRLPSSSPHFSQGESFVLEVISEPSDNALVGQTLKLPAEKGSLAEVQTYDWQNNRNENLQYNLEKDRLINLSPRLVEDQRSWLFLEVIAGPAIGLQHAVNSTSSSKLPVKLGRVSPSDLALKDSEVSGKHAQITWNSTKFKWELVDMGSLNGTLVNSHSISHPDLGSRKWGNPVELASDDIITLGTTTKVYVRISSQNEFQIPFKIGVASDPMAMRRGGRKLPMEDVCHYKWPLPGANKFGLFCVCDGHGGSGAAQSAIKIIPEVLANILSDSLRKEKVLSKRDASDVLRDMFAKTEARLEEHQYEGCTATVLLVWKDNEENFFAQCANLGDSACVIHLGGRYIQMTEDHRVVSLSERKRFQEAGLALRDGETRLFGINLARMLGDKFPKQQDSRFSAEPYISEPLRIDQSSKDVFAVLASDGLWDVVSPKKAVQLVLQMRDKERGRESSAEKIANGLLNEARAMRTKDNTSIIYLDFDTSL
# Variants of: B1
# Conditions: with KAPP
row,Variant,effect of a mutation on the interaction
1,K720E,disrupting interaction
